Test results: paper PMC3474736, “Structural Characterization of the Enzymes Composing the Arginine Deiminase Pathway in Mycoplasma penetrans” (PLoS ONE, 2012)

Columns and labels:
Experiment in all cases: SEC; HiLoad Superdex 200 26/60 gel-filtration column, 50 mM NaCl, 20 mM Tris-HCl pH 8.0; oligomeric state read from the elution
[1] = target: carbamate kinase (CK) from Mycoplasma penetrans (Mycoplasma penetrans)
[2] = target: short-ADI (arginine deiminase from Mycoplasma penetrans, form initiating at Met43 and ending at Lys452) (Mycoplasma penetrans)
[3] = target: the molecule itself

With “carbamate kinase (CK) from Mycoplasma penetrans (enzyme)” as the molecule, how does the stoichiometry N [1] read?
The stoichiometry N was 2.

How did the stoichiometry N [2] turn out when “short-ADI (arginine deiminase from Mycoplasma penetrans, form initiating at Met43 and ending at Lys452) (enzyme)” was run?
The stoichiometry N was 2.

B1: ornithine carbamoyltransferase (OTC) from Mycoplasma penetrans (enzyme, UniProt Q8EVF5 1-342, looked up)
chain: MPVNLKGRSLDSLLNFTTEEVQHLIDLSIDLKKAKYQGLHINNRPLVGKNIAILFQKDSTRTRCAFEVAASDLGAGVTYIGPSGSNMGKKESIEDTAKVLGRFYDGIEFRGFAQSDVDALVKYSGVPVWNGLTDDEHPTQIIADFMTMKEKFGNLKNKKIVFIGDYKNNVGVSTMIGAAFNGMHVVMCGPDNYKNEIDKNVLAKCIELFKRNGGSLRFSTDKILAAQDADVIYTDVWVSLGEPFELFDKRIGELKNFQVDMNMIKAAKNDVIFLHCLPAFHDDHTSFSKEVATTLGAKYPIVAKGEMEVTDEVFQSLHNKAFDQAENRMHSIKAIILSTIGY
notes: ornithine carbamoyltransferase (OTC, EC 2.1.3.3), arcB gene product of Mycoplasma penetrans strain GTU-54; traced from Met1 to Tyr342; TGA codons for Trp129 and Trp237 changed to TGG (no change of the amino acids); Dodecamer of four catalytic homotrimers; also called MpOTC; ornitine transcarbamylase; copies: 12
For B1, which “stoichiometry N” value [3] is on record?
Its value is 12.
